The results in this text go back to article PMC5769772.

In series [1] the target is T1, hnRNPF (recombinant) (human, UniProt P52597 1-415).
T1 sequence: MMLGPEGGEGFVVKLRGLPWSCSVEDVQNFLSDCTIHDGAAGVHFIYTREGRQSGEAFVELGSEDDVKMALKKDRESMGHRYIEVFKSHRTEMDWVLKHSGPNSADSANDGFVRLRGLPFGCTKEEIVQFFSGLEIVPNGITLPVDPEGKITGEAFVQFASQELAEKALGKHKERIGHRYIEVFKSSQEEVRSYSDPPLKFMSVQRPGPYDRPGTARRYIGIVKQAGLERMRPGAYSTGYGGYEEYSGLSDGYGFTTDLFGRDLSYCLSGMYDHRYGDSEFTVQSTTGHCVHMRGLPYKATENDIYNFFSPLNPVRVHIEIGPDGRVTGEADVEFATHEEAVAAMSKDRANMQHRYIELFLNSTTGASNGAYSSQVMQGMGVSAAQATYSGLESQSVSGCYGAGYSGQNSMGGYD
In words: EMSA.

For series [2], the target named is T1, hnRNPF (recombinant). The series is described as follows: pull-down.
Series [3] has as its target T1, hnRNPF (recombinant). The series is described as follows: EMSA. This is another data set of the same source. On the technique in general: Mobility shift assays separate free from complexed probe on a gel.

On to GCUUUGGUGGUGGAAUGGUGCUAUGUGG (structured_RNA) [I-8], for which the binding result in series [1] is “binds”. In the case of GCUUUGGUGGUGGAAUGGUGCUAUGUGG (structured_RNA) [Biotin-I-8-wt], the binding result in series [2] is “binds”.

On to GCUUUGAUGAUGAAAUGAUGCUAUGUGG (ssRNA) [I-8 G4m], for which, in series [3], the binding result is “no binding”.
